The results in this text go back to article PMC2141705.

The target of the experiment is calnexin (mouse (endogenous in AtT-20)) (UniProt P35564). Nature of the experiment: co-IP.
Sequence of UniProt P35564 (P35564 21-591): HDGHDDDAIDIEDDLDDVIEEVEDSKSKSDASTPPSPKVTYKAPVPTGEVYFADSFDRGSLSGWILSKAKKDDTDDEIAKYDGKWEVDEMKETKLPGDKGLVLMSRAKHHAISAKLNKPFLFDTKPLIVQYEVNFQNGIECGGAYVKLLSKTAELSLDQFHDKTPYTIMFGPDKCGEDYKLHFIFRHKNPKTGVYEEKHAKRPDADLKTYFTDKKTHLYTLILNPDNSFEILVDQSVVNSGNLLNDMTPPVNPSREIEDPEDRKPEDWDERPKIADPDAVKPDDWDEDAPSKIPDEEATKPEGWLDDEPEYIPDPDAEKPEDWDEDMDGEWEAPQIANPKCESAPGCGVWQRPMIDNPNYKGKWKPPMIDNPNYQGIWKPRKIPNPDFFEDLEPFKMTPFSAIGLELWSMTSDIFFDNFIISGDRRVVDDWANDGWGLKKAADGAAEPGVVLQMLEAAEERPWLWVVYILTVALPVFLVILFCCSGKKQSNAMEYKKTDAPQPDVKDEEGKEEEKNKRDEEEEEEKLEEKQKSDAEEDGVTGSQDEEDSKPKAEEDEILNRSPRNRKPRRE

Regarding “proPC2 (proenzyme form of prohormone convertase 2) (from UniProt P28841 25-637)”, the percent of total radiolabeled proPC2 coimmunoprecipitated amounted to 5%.
